Results from the nanobody polyreactivity screen of Harvey et al. (2022).

Assay: yeast display, Sf9 membrane polyspecificity reagent, FACS + sequencing; frameworks hold sequencing errors
In short: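 Nanobodies from a synthetic yeast display library (Saccharomyces cerevisiae BJ5465), induced 36–48 hours with galactose, were stained 1 hour at 4 °C with 10% biotinylated, detergent-solubilized Sf9 membrane reagent, enriched on streptavidin microbeads, then FACS-sorted. Anti-HA (expression) and streptavidin (reagent binding) fluorescence set low and high (top ~1%) gates. Polyreactivity labels come from the gate of origin. Genes were colony-PCR amplified, MiSeq 2 × 250 sequenced and filtered by CDR length.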

Sequence	polyreactivity (PSR sort gate)
QVQLVESGGGLVQAGGSLRLSCAASGSTFRNYAMGWYRQAPGKERELVAAISRGDGTYYADSVKGRFTISRDNAKNTVYLQMNSLKPEDTAVYYCAAAYRGRQNPMGYWGQGTQVTVSS	high polyreactivity
KVQLVESGGGLVQAGGSLRLSCAASGIFLDRNAMGWYRQAPGKERELVAAINSIGGSTYYADSVKGRFTISRDNAKNTVYLQMNSLKPEDTAVFYCAAPSTSSYYWGQGTQVTVSS	low polyreactivity
QVQLVESGGGLLQEGGSLRLSCAASGRTFYYYTMGWYRQAPGIERELVAAITHGGSTYYADSVKGRFTISRDNAKNTVYLQMNSLTPEDTAVYYCNAVYHYPYEYWGHGTQVTVSS	high polyreactivity
QVQLVESGGGLVQAGGSLRLSCAASGSTFITNSMGWYRQAPGKERELVAAITYSTGGTYYADSVKGRFTISRDNAKNTVYLQMNSLKPEDTAVYYCAALLYFFLYDYWGQGTQVSVSS	low polyreactivity
QVQLVESGGGLVQAGGSLRLSCAASGSIFWVYAMGWYRQAPGKEREFVAAITYSGGSTYYADSVKGRFTISRDNAKNTVYLQMNSLKPEDTAVYYCAADYDYDYGSRYYYWGQGTQVTVSS	low polyreactivity
QVQLVESGGGLVQAGGSLRLSCAASGSIFKGYALGWYRQAPGKERELVAAITYSGGGTYYADSVKGRFTISRDNAKNTVYLQMNSLKPEDTAVYYCNADRYYPDDLSDGVGTYDYWGQGTQVTVSS	low polyreactivity
QVQLVESGGGLVQAGGSLRLSCAASGSIFPFYAMGWYRQAPGKERELVAVISTRGGSTYYADSVKGRFTISRDYAKNTVYFQMKSLKPEDTAVYYCAAKSVYRMGYWGQGTQVTVSS	high polyreactivity
QVQLVESGGGLVQAGGSIRLRCAASGGIFSVYAMGWYIQAPGKERELVASISLSGGSTSYADSVKGRFTISRDNAKNTVYLQMNSLKPEDTAVYYCNTDFGQAHTLSWYEDMDYWGQGTQVTVSS	low polyreactivity
QVQLVESGGGLVQAGGSLRLSCAASGSIFKRNAMGWYRQAPGKERELVASISWSGTRTYYADSVKGRFTISRDKAKNTVYFQMNSLKPEDTAVYYCARRIYGGHPCQSTQGDFYYWGQGTQVTVSS	high polyreactivity
QVQLVESGGGLVQAGGSLRLSCADSGSIFLFNAMGWYRQAPGKERELVAAINRDDSTYYADSVKGRFTISRDNAKNTVYLQMNSLKPEDTAVYYCAAPVLHASYGYGYWGQGTQVTVSS	low polyreactivity
QVQLVESGAGLVQAGGSLRLSCDASGSIFSWYAMGWYRQARGKERELVAAITWSGGSTYYADSVKGRFTISRDNAKNTVYLEMNSLKPEDTAVYYCNTYSYYAFDWGLGTQVTVSS	high polyreactivity
QVQLVESGGGLVQAGGSLRLSCAASGFIFGTYAMGWYRQAPGKERELVAAISQSGGRTYYADSVKGRFTISRDNAKNTVYLQMNSLKPEDTAVYYCAAYRYVRYDYWGQGTQVTVSS	high polyreactivity
QVQLVESGGGLVQAGGSLRLSCAASGSIFKGYAMGWYRQAPGKERELVAAITGGGGSTYYADSVKGRFTISRDNAKNTVYLQMNSLKPEDTAVYYCAADARVKRYYFRKSGYWGQGTQVTVSS	high polyreactivity
QVQLVESGGGLVQAGRSLRLSSAASGSTFYYNPMGWYRQAPGKERELVAAISGGDSTYYADSVKGRFTISRDNAKNTVYLQMNSMKPEDTAVYYCAAASRRRSDGRRYGYWGQGTQVTVSS	high polyreactivity
QVQLVESGGGLVQAGGSLRLSCAASGSTFNRNTMGWYRQAPGKERELLAAISRRGGSTYYADSVKGRFTISRDNAKNTVYLQMNSLKPEDTAVYYCAAGREYRVYKGAQEFDYWGQGTQVTVSS	high polyreactivity
QVQLVESGGGLVQAGGSLRLSCAASGGIFPGYAMGWYRQAPGKERELVAAISGSGSSTYYADSVKGRFTISRDNAKNTVYLQMNSLKPEDTAVYYCAVYYTRGYDYWGQGTQVTVSS	high polyreactivity
QVQLVESGGGLVQAGGSLRLSCAASGSTFVENAMGWYRQAPGKQRELVAAISSSGDSTFYADSEKGRFTISRDNAKNTVYLQMNSLIPEDTAVYYCAADRRINYDGLDMDYWGQGTQVTVSS	low polyreactivity
QVQLVESGGGLVQAGGSLRLSCAASGITFNTYTMVWYTQAPGKERELVAAISGSSGRTYYADSVKGRFTISRDNAKNTVYLQMNSLNPEDTAVYYCAAYAVESYKYDYWGHGTQVTVSS	high polyreactivity
QVKLVDSGGGLVQAGGSLRLTCAASGITFDKYAMGWYRQAPGKERELVAAITKSSGSTYYADSVKGRFTISRVNAKNTDYLQMNSLKAEDTAVYYCAAGIVYCEYFWGQGTQVTVSS	high polyreactivity
QVQLQESGGGLVQAGGSLRLSCAASGYIFPRIYMGWYRQAPGKEREFDAGISYDAITNYADSVKGRYTISLDNAKNTVYLQMNSLKPEDTAVYYCAVSYYGTPLFTYWGQGTQVTVSS	high polyreactivity
QVQLVESGGGLVQAGGSLRLTCAASGSTFWSNSMGWYRQAPGKERELVAAISSRGGSTYYADSVKGRFTISRDNAMNTVYLQMNSLKPEDTAVYYCAARSKRLAHDYWGQGTQVTVSS	high polyreactivity
QVQLVESGGGLVQPGGSLRLSCAASGSIFAWYVMGWYRQAPGKERELVAGIDTSGGTTFYADSVKGRFTISRDNAKNTVYVQMNSLKPEDTAVYYCAADTWYRGPWEFDYWGQGTQVTVSS	low polyreactivity
QVQLVESGVGLVQAGGSLRLSCAASGGIFAVYAMGWYIQAPGKERELVAAITWRGGSTRYADSVKGRFTISRDNAKNTVYLQMNSLKPEDTAVYYCAVRSTGYPSRYYYWGQGTQVTVSS	high polyreactivity
QVQLVESGGGLVQAGGSLRISCAPSGLIFKYNAMGWYRQAPGKERDLVADINRSGGSTYYADSVKCRFTISRDNAKNTVYLQMNSLKPEDTEVYYCAAERDSLYWVLFGYWGQGTQVTVSS	low polyreactivity
QVQLQESGGGLVQAGGSLRLSCAASGYISYLDFMGWYRQAPGKERELVAGITTGATTNYADSVKGRFTISRDNAKNIVYHQMNSLKPEDTAVYYCAVIGGDTRGHPYWGQGSQVTVSS	low polyreactivity
QVQLVESGGGLVQAGGSLRLSCAASGSIFSSYAMGGYRQAPGKEWELVAAISRRGGSTYYADSVKGRFTISRDNAKNTVYLQMNSLKPEDTAVYYCNADSAARKGWPIYGYWGQGTQVTVSS	high polyreactivity
QVQLVESGGGLVQAGGSLRLSCAASGIIFRPYTMGWYRQAPGKERELVAAISQSGGRTYYADSVKGRFTISRDNAKNTVYLQMNSLKPEDTAVYYCNVLGSYSYYPWPIPGYDYWGQGTQVTVSS	high polyreactivity
QVQLVESVGGLVQAGGTLRLTCAASGSNFKAYAMRWYRQATGKERELVARIRYRGGSTYNADSVKGRFTISRDNAKNTVFLQMNSLKPEETAVYYCAARLSPYHTDRGDYLGQGTQVTVSS	high polyreactivity
QVQLVESGGGLVQAGGSLRLSCAASGSIFKYNAMGWYRQAPGKERELVAAITIGGRTYYADSVKGRFTISRDNAKNTVYLQMNSLKPEDTAVYYCAGVVRALTIKYGYWGQGTQVTVSS	high polyreactivity
QVQLVESGGGLVQAGGSLRLSCAASGRTFVLNAMGWYRQAPGKERELVAAITLGGGSTYADSVKGRFTISRDNAKNTVYLQMNSLKPEDTAVYYCAADFHYPDFEYWGQGTQVTVSS	low polyreactivity
